The results in this text go back to patent US20230218715A1.

What all share (assay): cell-based or functional assay
Experiment [1] deals with S protein of HCoV strain 229E (HCoV 229E) (UniProt P15423).
Experiment [2] has as its target S protein of HCoV strain NL63 (HCoV NL63) (UniProt Q6Q1S2).
Experiment [3] deals with S protein of HCoV strain OC43 (HCoV OC43) (UniProt P36334).
The target of experiment [4] is S protein of MERS-CoV strain EMC/2012 (MERS-CoV strain EMC/2012) (UniProt K9N5Q8).
Experiment [5] deals with S protein of SARS-CoV strain CuHK (SARS-CoV strain CuHK).
The target of experiment [6] is S protein of SARS-CoV strain Frank (SARS-CoV strain Frank).
The target in experiment [7] is S protein of SARS-CoV strain Tor-II (SARS-CoV strain Tor-II) (UniProt P59594).
Experiment [8] has as its target S protein of SARS-CoV strain Urbani (SARS-CoV strain Urbani).
The target in experiment [9] is S protein of SARS-CoV-2 strain USA-WA1/2020 (SARS-CoV-2 strain USA-WA1/2020) (UniProt P0DTC2).

Some results are limits rather than exact numbers.

UniProt P15423, sequence (P15423 16-1173): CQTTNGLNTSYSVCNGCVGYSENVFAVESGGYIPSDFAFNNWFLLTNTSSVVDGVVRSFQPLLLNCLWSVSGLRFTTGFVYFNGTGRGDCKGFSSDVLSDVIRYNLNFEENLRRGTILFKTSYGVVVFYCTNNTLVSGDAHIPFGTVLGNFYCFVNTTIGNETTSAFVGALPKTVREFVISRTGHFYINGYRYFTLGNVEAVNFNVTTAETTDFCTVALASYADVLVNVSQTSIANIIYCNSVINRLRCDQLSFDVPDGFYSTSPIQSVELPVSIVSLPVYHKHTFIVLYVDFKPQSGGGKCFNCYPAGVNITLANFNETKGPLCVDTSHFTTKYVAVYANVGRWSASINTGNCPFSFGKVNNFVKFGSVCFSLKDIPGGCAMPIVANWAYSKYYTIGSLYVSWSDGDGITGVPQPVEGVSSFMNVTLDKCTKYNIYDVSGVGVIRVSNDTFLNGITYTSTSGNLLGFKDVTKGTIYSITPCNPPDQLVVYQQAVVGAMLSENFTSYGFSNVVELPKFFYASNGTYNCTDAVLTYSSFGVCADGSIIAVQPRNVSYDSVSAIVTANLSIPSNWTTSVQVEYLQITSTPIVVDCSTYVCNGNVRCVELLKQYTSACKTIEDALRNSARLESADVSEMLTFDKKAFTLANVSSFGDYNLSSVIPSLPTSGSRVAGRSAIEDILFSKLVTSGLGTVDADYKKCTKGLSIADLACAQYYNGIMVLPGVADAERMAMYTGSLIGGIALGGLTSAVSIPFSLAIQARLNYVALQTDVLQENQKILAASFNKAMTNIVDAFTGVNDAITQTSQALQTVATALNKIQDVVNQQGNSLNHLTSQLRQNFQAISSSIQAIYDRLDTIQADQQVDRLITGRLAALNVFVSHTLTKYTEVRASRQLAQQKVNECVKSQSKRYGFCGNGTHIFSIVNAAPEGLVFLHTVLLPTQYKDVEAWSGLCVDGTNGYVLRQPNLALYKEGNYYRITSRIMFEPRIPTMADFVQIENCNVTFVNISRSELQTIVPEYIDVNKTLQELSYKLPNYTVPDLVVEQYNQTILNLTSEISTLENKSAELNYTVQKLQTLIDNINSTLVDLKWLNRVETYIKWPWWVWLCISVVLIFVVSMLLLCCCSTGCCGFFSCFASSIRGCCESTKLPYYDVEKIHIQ
UniProt Q6Q1S2, sequence (Q6Q1S2 19-1356): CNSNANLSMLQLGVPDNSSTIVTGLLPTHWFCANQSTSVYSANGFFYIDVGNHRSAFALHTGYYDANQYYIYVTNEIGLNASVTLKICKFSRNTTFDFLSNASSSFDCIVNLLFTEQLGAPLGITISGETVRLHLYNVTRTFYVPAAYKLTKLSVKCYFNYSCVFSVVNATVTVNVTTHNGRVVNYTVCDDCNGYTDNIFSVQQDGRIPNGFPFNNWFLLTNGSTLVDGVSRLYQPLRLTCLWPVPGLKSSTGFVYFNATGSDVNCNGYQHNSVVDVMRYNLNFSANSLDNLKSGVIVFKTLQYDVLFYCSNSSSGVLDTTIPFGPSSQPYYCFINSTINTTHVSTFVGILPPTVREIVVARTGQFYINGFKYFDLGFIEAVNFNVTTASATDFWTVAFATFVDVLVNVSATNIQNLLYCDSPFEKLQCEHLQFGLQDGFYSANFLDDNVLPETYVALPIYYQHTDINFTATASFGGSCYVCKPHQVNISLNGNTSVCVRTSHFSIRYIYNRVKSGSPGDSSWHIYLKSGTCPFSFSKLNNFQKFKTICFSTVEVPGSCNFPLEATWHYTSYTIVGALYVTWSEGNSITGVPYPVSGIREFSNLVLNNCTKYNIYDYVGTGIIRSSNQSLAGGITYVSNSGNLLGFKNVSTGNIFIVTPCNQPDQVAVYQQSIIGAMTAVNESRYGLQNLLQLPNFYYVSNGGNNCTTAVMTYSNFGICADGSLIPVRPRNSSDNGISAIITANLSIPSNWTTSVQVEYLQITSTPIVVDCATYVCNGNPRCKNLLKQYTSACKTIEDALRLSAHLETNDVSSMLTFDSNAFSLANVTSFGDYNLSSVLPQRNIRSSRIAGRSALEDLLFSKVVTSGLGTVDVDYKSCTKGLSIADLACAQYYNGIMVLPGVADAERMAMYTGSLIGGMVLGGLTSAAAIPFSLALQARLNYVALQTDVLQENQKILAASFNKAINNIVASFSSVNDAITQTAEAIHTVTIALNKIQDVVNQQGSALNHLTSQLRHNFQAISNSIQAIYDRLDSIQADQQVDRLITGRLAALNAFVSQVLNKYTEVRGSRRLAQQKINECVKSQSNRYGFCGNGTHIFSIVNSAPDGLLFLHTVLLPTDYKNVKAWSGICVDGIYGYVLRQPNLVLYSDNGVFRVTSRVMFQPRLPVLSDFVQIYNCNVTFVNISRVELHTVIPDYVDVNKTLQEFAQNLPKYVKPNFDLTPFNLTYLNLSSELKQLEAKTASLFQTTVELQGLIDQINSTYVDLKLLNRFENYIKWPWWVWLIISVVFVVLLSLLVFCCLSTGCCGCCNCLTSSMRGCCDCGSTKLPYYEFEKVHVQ
UniProt P36334, sequence (P36334 14-1353): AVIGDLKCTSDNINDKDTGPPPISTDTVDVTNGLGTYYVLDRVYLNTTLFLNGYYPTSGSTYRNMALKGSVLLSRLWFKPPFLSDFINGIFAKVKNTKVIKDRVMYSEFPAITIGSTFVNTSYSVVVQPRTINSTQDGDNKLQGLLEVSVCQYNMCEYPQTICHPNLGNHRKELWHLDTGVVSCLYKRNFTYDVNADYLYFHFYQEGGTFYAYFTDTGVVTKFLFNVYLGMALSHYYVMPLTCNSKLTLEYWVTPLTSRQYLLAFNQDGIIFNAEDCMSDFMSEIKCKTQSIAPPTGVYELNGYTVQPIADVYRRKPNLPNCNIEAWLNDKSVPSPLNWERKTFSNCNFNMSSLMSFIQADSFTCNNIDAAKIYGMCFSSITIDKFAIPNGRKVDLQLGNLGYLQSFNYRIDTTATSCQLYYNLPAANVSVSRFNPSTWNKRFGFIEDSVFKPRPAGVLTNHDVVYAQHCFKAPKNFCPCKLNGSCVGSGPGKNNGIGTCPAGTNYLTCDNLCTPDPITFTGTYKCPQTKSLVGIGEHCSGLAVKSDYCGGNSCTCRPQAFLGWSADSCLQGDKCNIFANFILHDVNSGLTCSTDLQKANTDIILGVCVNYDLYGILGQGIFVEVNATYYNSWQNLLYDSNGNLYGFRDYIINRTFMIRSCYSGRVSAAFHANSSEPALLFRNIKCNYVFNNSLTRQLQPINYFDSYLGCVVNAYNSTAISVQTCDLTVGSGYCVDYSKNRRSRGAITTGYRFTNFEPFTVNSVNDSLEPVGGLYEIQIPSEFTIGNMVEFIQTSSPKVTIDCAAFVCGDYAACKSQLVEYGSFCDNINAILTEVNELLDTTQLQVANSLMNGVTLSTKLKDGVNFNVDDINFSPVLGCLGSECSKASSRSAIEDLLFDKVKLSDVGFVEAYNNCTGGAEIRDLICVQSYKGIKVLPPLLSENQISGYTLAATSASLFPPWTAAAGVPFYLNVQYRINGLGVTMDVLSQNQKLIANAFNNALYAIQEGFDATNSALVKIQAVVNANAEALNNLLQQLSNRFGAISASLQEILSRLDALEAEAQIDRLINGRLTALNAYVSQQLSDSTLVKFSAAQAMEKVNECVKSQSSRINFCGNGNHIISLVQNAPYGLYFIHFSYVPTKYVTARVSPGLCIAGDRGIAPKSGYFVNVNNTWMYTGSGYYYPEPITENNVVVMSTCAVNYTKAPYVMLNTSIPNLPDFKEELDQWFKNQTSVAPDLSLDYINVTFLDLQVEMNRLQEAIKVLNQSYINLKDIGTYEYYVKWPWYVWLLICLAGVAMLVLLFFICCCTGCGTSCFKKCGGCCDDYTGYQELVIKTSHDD

Consider wild-type griffithsin, for which the Antiviral activity EC50 was 0.18 µg/mL in experiment [1]; under 0.0032 µg/mL in experiment [2]; 0.16 µg/mL in [3]; under 0.124 µg/mL in experiment [4]; 0.78 µg/mL in [5]; 1.19 µg/mL in experiment [6]. Further, the Antiviral activity EC50 was 0.61 µg/mL in experiment [7], 0.61 µg/mL in experiment [8] and under 0.1 µg/mL in [9].
